Measurements reported in PMC2719339.

What was measured:
[1] = molecular target: thiostrepton resistance RNA methyltransferase (Tsr) (Streptomyces azureus) (UniProt P18644); test: native gel or EMSA
[2] = molecular target: thiostrepton resistance RNA methyltransferase (Tsr) (Streptomyces azureus) (UniProt P18644); test: SEC

Substance: thiostrepton resistance RNA methyltransferase (Tsr) (from UniProt P18644 1-269) (enzyme)
- stoichiometry N [1]: 2
- stoichiometry N [2]: 2
